Reference: US10556936B2, “Immunogenic proteins and fragments thereof from allergenic mites” (ALK-ABELLÓ A/S, priority 2016, dated 2020)
Marks after values point to notes of the source that are not given here.

B1: 13 (protein, listed as Dermatophagoides farinae)
chain: KKTKDCDVEKPIRECLKNGLLRYSDGQKINQFPDSIEDLNRACEELKKSETCARNFIDTCTETSYEKRSLDSLLDGIQRVLKRLCRSQSKKEQLLQNVGCANSVVQDTKLCLKNYRMLVFAANKLNDKSKIMRILCCKSRKVAPCIGEAMKSKGNAVCSAKNIDYFREMHQNIKAEMTAVVCSDFERDQCENVEVPAITEAEYKDQNIFNPLRDLYKKVILA
B2: 40 (protein, listed as Dermatophagoides pteronyssinus)
chain: KSAPEGCFRAAVLDHVHQTDARHLSNTAKIIDLNFKVYEDAAALAKKQGADIIVFPENGLIYSILSREKADEFASDIPDAEVNACTLDSKFVYNRLACLAQKHQMFVVADLIDRKSCEELGINNVSDSCPADKKFLFNTAVLFDRQGKLLGRYHKMHLFGEISMNPPPKPELLVIDTELGRLGMQICFDMIFKTPGYLLAQENKFDTMLFPTWWFDESPMLSSSQYQMAWAFGNNVTLLASNIHRIEVGSRGSGIYVGPHRTLAAALYDDSVERLVLANVPIKPKETDQSACPLDSEIIEVPQQIPIPKSVKYHHQNLNLKDVTLLQLSSNESEVHLCHKGVCCQFEYRLAMKDQPQESWVDRVPLLANMLHYLTPEERYYLLIANRTRPGAYPWSEEFCAVVVCPSSRWNFGKMQKDCSKIGSNQELSSRFVHAKLRGKFSEDTAVYPSAVGSKNQLIYPENKWKFWKVNVPNEPEYFIELGAKDNSESRAMELGALVLYGRNYNRDPRYEQKALPIN
B3: 6 (protein, listed as Dermatophagoides pteronyssinus)
chain: MVKAVVVLKGDPNVSGTIFFEQQDNGPVKVTGSVQGLKPGLHGFHVHEFGDNTNGCTSAGAHYNPLNKTHGAPNDEERHVGDLGNIEANDKGVANVVIEDSLISLTGEKSIVGRSLVVHADPDDLGRGGHELSKTTGNAGGRLVCGVIGVTK
B4: 25 (protein, listed as Dermatophagoides pteronyssinus)
chain: MSSSSGKKYDFSGKVALVTGSSSGIGAAIALQFAQYGAQVTITGRDAAALESVAKRIEAESGHQPLQIVGNLLDQSLPAKLIDGTISKYGRLDFLVNNAGFSTQHRDIHDEKLMEAFDQVYGLNVRAVVQLSQLAATHLEKSKGNIINISSNLSMMPVHIIYSSSKAALDMITKTMAMEFGKKGVRVNSINPGPVATQFMRSLGMPVTFLKENEEFVKELTLLKFVAQPVEIANLASFLASDDARNMTGSIVVNDTGSLLAPRVDFKKLDEIKKK
B5: 38 (protein, listed as Dermatophagoides farinae)
chain: QSRDRNDKPYRIVCYWGTWAFYRPASGKFQAENVNPNLCTHIMYGFAKLQNNKIALYDPDLDDGDEDWNSGLQWGHGMIRRMVNLRTYNPHLTTMISLGGWNEGSDKYSIMVRDPASRKIFIQSVLHLLAEFDLDGLDFDWEYPAMQASGDSDRKPGRAEDKEDFVTLLRELHEAFQPHGYVLSSAVSAGKPTIDRAYNIPEVSKYLDFINLMSYDYHGGWESHTGHNAPLNSYKNANELDKEFTVTYSVEYWLNHGVDPKKLVLGIPLYGRTFTLAGSEHGIGAPTIGKGGESGTITRTIGMLGYNEICTMIKQGWQLYRDEIERIPYAVHANQWIGYDDRESVNEKLNLLMAKHLGGAMVWSIDTDDFVGNCVGVKYPLLRSISKKLNNVDGPDPDIKRYHYHTSTAKPHTDGTTSTHHDHKTTTTKHHKTTQPHHKTTQPHHTQTITTTTERPHGKFQCHQAGFFADPENPRKFHQCVDFGGHLKDYEFMCGEGTHYDEKLHICVR
B6: 29 (protein, listed as Dermatophagoides pteronyssinus)
chain: MVKIGINGFGRIGRLVLRAAIKKGVEVAAINDPFLDVKYMVYMFKFDSTHGRYQGEVKEEGGLLVVDGQKIQVFQERNPAEIPWGKVGADYVVESTGVFTTIEKAKAHLAGGAKKVIISAPSADAPMYVMGVNHDKYDPKQQIISNASCTTNCLAPLAKVINDKFGIENGLMTTVHAITATQKTVDGPSGKLWRDGRGAGQNIIPASTGAAKAVGKVIPELNGKLTGMALRVPVPDVSVVDLTVTLKNPASYDEIKAAVKAAAESDHWKGILEYTDEEVVSSDFISDTHSSIFDAKAGIALTPTFVKLIAWYDNEFGYSNRVVDLIKYVASK
B7: 37 (protein, listed as Dermatophagoides pteronyssinus)
chain: DTPANCTYEDIKGLWLFEETEPIKDRWEKCPEHQQQREKYSKKIFIRLDFPNVAVDKFGNIGEWTMIYNQGFEVKINYRKYFAFSAYERKSENNVLSYCHKTQPGWSHDVLGNNWACYVGHKVNNWNDDDVSKTTTVGAEKFPVKQHSERELYLQNINVEHILSQKHIDHLNSQQKSWKAIVYPDLQSKSIEHLIQMAGGRKSRIINRPKPLRATEQQKQLARSLPESFDWRNLNGIDYVSPVRDQGKCGSCYTFASMAMLESRIRIQTNNTFKPIFSTQEVVDCSEYSQGCDGGFSYLIAGKYAQDFGVIDESCYPYKGVTGKCQNQQNFNQTNEKCKQRTYTIDYKYVGGYFGACNEEAMQIELVQNGPIAVGFEVYGDFFGYSEGIYSHQPSNESNDQHQQIKAEFNPFEMTNHAVLIVGYGKDKKTGEKYWIVKNSWGKQWGMDGYFWMRRGTDECAIESLAMAATPIPN
B8: 33 (protein, listed as Dermatophagoides pteronyssinus)
chain: IEQVHIALGSNETEIIVTWTEPHKHDDKTSDAVVYYGQAKSSFDQKVKAISEYFKDDKTKYTTYRALLTGLLPGTEYHYRIQMDDLESSIFEFKTLKTGEENWLPRFAIYGDLGYVNEQSLPYLKKDVEQNLFDVIFHIGDFAYDLNDEHGKVGHHFMRSIEPVASKVAYMTCPGNHERHDNFSHYDSRFSMIGDRSQPIHSDKLNKRLNNHFHSMTIGPATIILFSTEYYYYTKYGWQQIEHQYRWLEQELKRANENRQKHPWIIVMGHRPLYCLKMGDDSCDHQTMERKEIRQGIRMHDEGERQYGLEDLFFKYGVDIQFYGHEHFYARLFPIYKYKMYNGTKSKNPYDHPGAPIHITTGSAGNKELHPEFNHLNDWVAEHFYDYGYTRLMFEDKYRIRLQQISDDQHGKVLDEIEIVKSSPQPHWMNVEHH

System: basophils in whole blood from HDM allergic donors
Experiment: Basophil Activation Test (BAT)
Assay type: cell-based, human
Settings: responding donors of tested HDM allergic donors; whole blood stimulated 1 h
Procedure, shortened: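 Basophil activation was read by flow cytometry as increased surface activation markers. The stimulus was a 1 h exposure of blood from 14 HDM-allergic donors to test proteins or major mite allergens at graded concentrations (e.g. 1–1000 ng/ml).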

| Molecule | % responding donors in BAT Assay |
| --- | --- |
| B1 | 0 of 16 |
| B2 | 0 of 8 |
| B3 | 1 of 8* |
| B4 | 1 of 8* |
| B5 | 0 of 8 |
| B6 | 1 of 8* |
| B7 | 0 of 8 |
| B8 | 1 of 8* |

System: HDM specific T-cell lines from HDM allergic donors
Experiment: T cell reactivity of protein: IL-5/IFNg FluoroSPOT or 72 h T cell proliferation in HDM specific T-cell lines (Example 2)
Assay type: cell-based, human
Settings: responding donors of tested HDM allergic donors
Excerpt: PBMCs from European HDM-allergic individuals were recruited in the Copenhagen region (defined by clinical history of allergy to house dust mite and specific IgE to group 1 and group 2 major allergens from Der p and/or Der f and with measured specific IgE (CAP) >0.7 kU/L towards Der p/f 1 or Der p/f 2. In addition, PBMCs from 10 US HDM-allergic individuals were recruited in San Diego (defined by Der p extract IgE titers greater than 0.35 kUA/L). PBMCs were isolated from whole blood by density gradient centrifugation according to manufacturers' instructions (Ficoll-Hypaque, Amersham Biosciences, Uppsala, Sweden). Der p- and Der f-specific extract IgE titers were determined using the ImmunoCAP system (Thermo Fisher, Uppsala, Sweden). In a separate series of experiments, pooled plasma from 10 European and 10 American HDM atopic individuals from the San Diego region, respectively, was utilized to run 2D immunoblots to elucidate IgE and IgG reactivity towards the proteins, which had at least one peptide with positive T cell response.
T cells reactivity was determined by establishment of HDM specific T-cell lines according to standard methods. In short, PMBCs from HDM allergic donors were cultured for 2-3 weeks in the presence of house dust mite allergen extract. The responses to proteins having SEQ ID NOs 1-44 were assessed by IL-5/IFNg FluoroSPOT (Mabtech FS-0108-10) according manufacturer protocol, (after 2 weeks) or proliferation in a standard 72 h T cell proliferation assay, as described in Henmar H et al., Clin Exp Immunol 2008; 153(3):316-23. (after 3 weeks). In addition these established T cell lines were used for further characterization and epitope mapping.

| Molecule | % T cell responding donors to protein |
| --- | --- |
| B1 | 6 of 29 |
| B2 | 15 of 27 |
| B3 | 0 of 27 |
| B4 | 3 of 26 |
| B5 | 11 of 27 |
| B6 | 2 of 27 |
| B7 | 4 of 27 |
| B8 | 10 of 27 |
